Key:
Experiment in all cases: cell-based or functional assay
[1] = target: HIV-1 92BR020 envelope protein (Env) on pseudovirus (HIV-1)
[2] = target: HIV-1 Env of isolate MGRM-D-024 (clade D) (HIV-1)
[3] = target: HIV-1 Env of isolate 92UG001 (clade D) (HIV-1)
[4] = target: HIV-1 Env of isolate MGRM-G-024 (clade G pseudovirus) (HIV-1)
[5] = target: HIV-1 Env of isolate MGRM-D-001 (clade D) (HIV-1)
[6] = target: HIV-1 MGRM-F1-014 Env (pseudovirus) (HIV-1)
[7] = target: HIV-1 93UG077 envelope glycoprotein (Env) (HIV-1)
[8] = target: HIV-1 94UG103 envelope glycoprotein (Env) (HIV-1)
[9] = target: HIV-1 Env of isolate MGRM-G-015 (clade G pseudovirus) (HIV-1)
[10] = target: HIV-1 Env of isolate MGRM-D-021 (clade D) (HIV-1)
[11] = target: HIV-1 92RW009 envelope glycoprotein (Env) (HIV-1)
[12] = target: HIV-1 MGRM-A-009 envelope glycoprotein (Env) (HIV-1)
[13] = target: HIV-1 MGRM-C-019 Env (HIV-1)
[14] = target: HIV-1 Env of pseudovirus JRCSF, clade B (HIV-1) (UniProt P20871)
[15] = target: HIV-1 MGRM-C-005 Env (HIV-1)
[16] = target: HIV-1 98CN006 envelope glycoprotein (Env) on pseudovirus (HIV-1)
[17] = target: HIV-1 Env of isolate MGRM-D-022 (clade D) (HIV-1)
[18] = target: HIV-1 MGRM-A-007 envelope glycoprotein (Env) (HIV-1)
[19] = target: HIV-1 MGRM-C-015 Env (HIV-1)
[20] = target: HIV-1 JR-CSF envelope protein (Env) on pseudovirus (HIV-1) (UniProt P20871)
[21] = target: HIV-1 93RW029 envelope glycoprotein (Env) (HIV-1)
[22] = target: HIV-1 LAVI_C3 Env (HIV-1)
[23] = target: HIV-1 Env of isolate SF162 (HIV-1) (UniProt P19549)
[24] = target: HIV-1 MGRM-C-020 Env (HIV-1)

Substance: 4E10 (antibody)
- neutralization IC50 [1]: 41.4 µg/mL
- IC50 (µg/ml), pseudovirus neutralization [2]: 3.6 µg/mL
- IC50 (µg/ml), pseudovirus neutralization [3]: 13.6 µg/mL
- IC50 (µg/ml), pseudovirus neutralization [4]: 1.57 µg/mL
- IC50 (µg/ml), pseudovirus neutralization [5]: 1.84 µg/mL
- IC50 (µg/ml), pseudovirus neutralization [6]: 7.36 µg/mL
- IC50 (µg/ml), pseudovirus neutralization [7]: 10.6 µg/mL
- IC50 (µg/ml), pseudovirus neutralization [8]: 4.97 µg/mL
- IC50 (µg/ml), pseudovirus neutralization [9]: 1.07 µg/mL
- IC50 (µg/ml), pseudovirus neutralization [10]: 13.3 µg/mL
- IC50 (µg/ml), pseudovirus neutralization [11]: > 50 µg/mL
- IC50 (µg/ml), pseudovirus neutralization [12]: 12 µg/mL
- IC50 [13]: 3.49 µg/mL
- IC50 (µg/ml), pseudovirus neutralization [14]: 3.3 µg/mL
- IC50 [15]: 16.4 µg/mL
- IC50 (µg/ml), pseudovirus neutralization [16]: 1.91 µg/mL
- IC50 (µg/ml), pseudovirus neutralization [17]: 16.9 µg/mL
- IC50 (µg/ml), pseudovirus neutralization [18]: 1.82 µg/mL
- IC50 [19]: 2.52 µg/mL
- neutralization IC50 [20]: 6 µg/mL
- IC50 (µg/ml), pseudovirus neutralization [21]: 15.5 µg/mL
- IC50 [22]: 2.85 µg/mL
- IC50 (µg/ml), pseudovirus neutralization [23]: 4.28 µg/mL
- IC50 [24]: 2.8 µg/mL

Substance: 2F5 (antibody)
- neutralization IC50 [1]: > 50 µg/mL
- IC50 (µg/ml), pseudovirus neutralization [2]: > 50 µg/mL
- IC50 (µg/ml), pseudovirus neutralization [3]: 13 µg/mL
- IC50 (µg/ml), pseudovirus neutralization [4]: 1.07 µg/mL
- IC50 (µg/ml), pseudovirus neutralization [5]: 0.63 µg/mL
- IC50 (µg/ml), pseudovirus neutralization [6]: 15.1 µg/mL
- IC50 (µg/ml), pseudovirus neutralization [7]: 3.3 µg/mL
- IC50 (µg/ml), pseudovirus neutralization [8]: 1.92 µg/mL
- IC50 (µg/ml), pseudovirus neutralization [9]: 0.43 µg/mL
- IC50 (µg/ml), pseudovirus neutralization [10]: > 50 µg/mL
- IC50 (µg/ml), pseudovirus neutralization [11]: 39.1 µg/mL
- IC50 (µg/ml), pseudovirus neutralization [12]: 9.4 µg/mL
- IC50 [13]: > 50 µg/mL
- IC50 (µg/ml), pseudovirus neutralization [14]: 1.85 µg/mL
- IC50 [15]: > 50 µg/mL
- IC50 (µg/ml), pseudovirus neutralization [16]: > 50 µg/mL
- IC50 (µg/ml), pseudovirus neutralization [17]: 8.45 µg/mL
- IC50 (µg/ml), pseudovirus neutralization [18]: 16.3 µg/mL
- IC50 [19]: > 50 µg/mL
- neutralization IC50 [20]: 3.36 µg/mL
- IC50 (µg/ml), pseudovirus neutralization [21]: > 50 µg/mL
- IC50 [22]: > 50 µg/mL
- IC50 (µg/ml), pseudovirus neutralization [23]: 2.52 µg/mL
- IC50 [24]: > 50 µg/mL

Substance: 2G12 (antibody)
- neutralization IC50 [1]: 2.26 µg/mL
- IC50 (µg/ml), pseudovirus neutralization [2]: > 50 µg/mL
- IC50 (µg/ml), pseudovirus neutralization [3]: > 50 µg/mL
- IC50 (µg/ml), pseudovirus neutralization [4]: > 50 µg/mL
- IC50 (µg/ml), pseudovirus neutralization [5]: > 50 µg/mL
- IC50 (µg/ml), pseudovirus neutralization [6]: > 50 µg/mL
- IC50 (µg/ml), pseudovirus neutralization [7]: > 50 µg/mL
- IC50 (µg/ml), pseudovirus neutralization [8]: 48.1 µg/mL
- IC50 (µg/ml), pseudovirus neutralization [9]: > 50 µg/mL
- IC50 (µg/ml), pseudovirus neutralization [10]: 23 µg/mL
- IC50 (µg/ml), pseudovirus neutralization [11]: 26.1 µg/mL
- IC50 (µg/ml), pseudovirus neutralization [12]: 7.47 µg/mL
- IC50 [13]: > 50 µg/mL
- IC50 (µg/ml), pseudovirus neutralization [14]: 0.37 µg/mL
- IC50 [15]: > 50 µg/mL
- IC50 (µg/ml), pseudovirus neutralization [16]: > 50 µg/mL
- IC50 (µg/ml), pseudovirus neutralization [17]: > 50 µg/mL
- IC50 (µg/ml), pseudovirus neutralization [18]: > 50 µg/mL
- IC50 [19]: 1.75 µg/mL
- neutralization IC50 [20]: 0.66 µg/mL
- IC50 (µg/ml), pseudovirus neutralization [21]: > 50 µg/mL
- IC50 [22]: > 50 µg/mL
- IC50 (µg/ml), pseudovirus neutralization [23]: 1.67 µg/mL
- IC50 [24]: 18.6 µg/mL

Reference: patent publication US20200024330A1
